Key:
PTP1B [1] = molecular target: T1, PTP1B (Homo sapiens, UniProt P18031 P18031:1-321); test: inhibition; 125 mM NaCl, DiFMUP, competitive; 20 nM from Lineweaver-Burk fit; settings: tags: N-terminal His6; R&D Systems 1366-PT-050; hairpin
T1 sequence: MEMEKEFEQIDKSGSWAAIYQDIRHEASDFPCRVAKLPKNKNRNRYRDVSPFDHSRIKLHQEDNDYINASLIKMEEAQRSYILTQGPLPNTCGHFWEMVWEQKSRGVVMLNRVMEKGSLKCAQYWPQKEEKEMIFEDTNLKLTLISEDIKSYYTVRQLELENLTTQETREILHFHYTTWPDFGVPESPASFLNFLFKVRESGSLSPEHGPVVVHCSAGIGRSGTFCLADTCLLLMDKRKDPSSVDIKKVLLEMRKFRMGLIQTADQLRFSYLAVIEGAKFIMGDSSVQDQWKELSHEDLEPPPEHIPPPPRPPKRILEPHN
Procedure: In parallel with a no-RNA control, the activity in the presence of 30 nM C13M21 was measured in duplicate for varying concentrations of DiFMUP. […] Fitting of the data in the presence of C13M21 gave a Kₘ*of 63 μM, which equates to a Kᵢ of 20 nM. The fitted Vₘₐₓ in the presence of the inhibitor was equal to or slightly greater than the no-RNA Vₘₐₓ, indicating the presence of competitive inhibition.
(§1) To further refine the estimate of Kᵢ, an assay was run at a fixed DiFMUP concentration of 20 μM with the C13M21 and the full-length C13 nucleic acid ligand, each premixed with the PTP1B at […] in the 125 mM NaCl buffer. […] Nonlinear fitting gives an estimate of the IC₅₀ of […]. Based on a Kₘ of 25 μM, and assuming competitive inhibition, this gives a Kᵢ of 45 nM for C13M21 and a Kᵢ of 7 nM for the full-length nucleic acid ligand at 125 mM NaCl concentration.

[2] = molecular target: T2, PTP1B catalytic domain (321 residues), GST fusion (Homo sapiens, UniProt P18031 P18031:1-321); test: filter; 20 mM HEPES pH 7.2, 5 mM MgCl2, 125 mM NaCl, room temperature; settings: tags: GST; hairpin
T2 sequence: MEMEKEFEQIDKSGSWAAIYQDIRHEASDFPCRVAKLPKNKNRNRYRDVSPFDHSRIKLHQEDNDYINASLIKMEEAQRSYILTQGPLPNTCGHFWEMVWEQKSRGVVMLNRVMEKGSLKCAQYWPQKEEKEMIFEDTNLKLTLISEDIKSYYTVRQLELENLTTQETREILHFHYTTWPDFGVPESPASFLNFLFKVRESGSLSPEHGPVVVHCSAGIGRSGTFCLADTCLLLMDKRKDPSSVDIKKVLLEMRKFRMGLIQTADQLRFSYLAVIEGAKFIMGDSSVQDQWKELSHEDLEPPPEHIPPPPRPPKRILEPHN
Procedure: Binding assays were carried out in triplicate at 12 different PTP1B concentrations using a Schleicher & Schuell Milliblot™ apparatus with 0.45 μm BioRad TransBlot® nitrocellulose layered on top of a Hybond™-N+nylon transfer membrane. Radiolabelled RNA at 100-500 pM was heated to 75° C. for 3 minutes then cooled to room temperature before mixing with a 2× serial dilution of the target and also a no-target control. 150 μL of the mixtures at each of the 12 enzyme concentrations were pre-incubated at room temperature for 60 minutes before applying to the pre-washed membrane to allow the RNA complex to reach equilibrium (Waley, S. G. (1993) The Biochemical journal 294 Pt 1, 195-200). Following addition of 40 μL per well of each mixture to three separate wells of the Milliblot™ apparatus, the filter was washed 3 times. The dilutions and all washes used the binding buffer described above. Activity of the filters was measured using a FujiFilm BAS-1800II phosphorimager and relative density used to estimate the fraction of radiolabelled RNA retained on the nitrocellulose and nylon membranes.
A binding assay with a concentration of 2 nM of the radiolabelled C13M21 nucleic acid ligand against PTP1B-GST was performed with the protein concentration ranging from 1 nM to 512 nM in a 2:1 serial dilution. […]

PTP1B [3] = molecular target: T1, PTP1B; test: inhibition; 20 mM NaCl, 5 uM DiFMUP; p151 quotes about 600 pM; settings: tags: N-terminal His6; R&D Systems 1366-PT-050; hairpin
PTP1B [4] = molecular target: T1, PTP1B; test: inhibition; parent about 35 nM; settings: tags: N-terminal His6; R&D Systems 1366-PT-050
Procedure: Several single-base modifications of the M21 nucleic acid ligand were also tested to determine whether the changes would affect the level of inhibition. With reference to the postulated secondary structure shown in FIG. 9, the sequence at each position on the unpaired regions was modified at positions 31 through 37 and positions 42 through 46. […] From this, it appears that the other nucleotides are either critical in the contact with the PTP1B molecule or in shaping the nucleic acid ligand into a conformation that binds with the PTP1B.

PTP1B [5] = molecular target: T1, PTP1B; test: inhibition; 20 mM NaCl, 5 uM DiFMUP; settings: tags: N-terminal His6; R&D Systems 1366-PT-050; hairpin
PTP1B [6] = molecular target: T1, PTP1B; test: inhibition; 125 mM NaCl, DiFMUP; settings: tags: N-terminal His6; R&D Systems 1366-PT-050; hairpin
Procedure: as §1

B1: C13M21 (ssRNA)
RNA: GGGAAUUCUGUGAUCAAUUUGGCAAUCCGCCACACGAGUUC
Ki (PTP1B [1]): 45 nM | Kd [2]: 28 nM | Ki (PTP1B [3]): 0.3 nM

B2: C13M21 G54U (ssRNA)
RNA: GGGAAUUCUGUGAUCAAUUUGGCAAUCCGCCACACUAGUUC
modifications: [36]
Ki (PTP1B [4]): 48 nM

B3: C9 shortened to M21 range (ssRNA)
RNA: GGGAAUUCUGUGAUUAAUUUGGCAAUCCGCCACACUAGUUC
modifications: [15,36]
Ki (PTP1B [4]): ~250 nM

B4: C13 (ssRNA)
RNA: GGGAAUGGAUCCACAUCUACGAAUUCUGUGAUCAAUUUGGCAAUCCGCCACACGAGUUCACUGCAGACUUGACGAAGCUU
Ki (PTP1B [5]): < 0.1 nM | Ki (PTP1B [6]): 7 nM
